{
  "source": "patent US20120207771A1",
  "about": "(MORPHOTEK, published 2012)",
  "binders": {"B1": {"name": "26B3.F2 antibody (antibody, mouse IgG1, V domains shown)", "VH": "GPELVKPGASVKISCKASDYSFTGYFMNWVMQSHGKSLEWIGRIFPYNGDTFYNQKFKGRATLTVDKSSSTAHMELRSLASEDSAVYFCARGTHYFDYWGQGTTLTVSS", "VL": "PASLSASVGETVTITCRTSENIFSYLAWYQQKQGISPQLLVYNAKTLAEGVPSRFSGSGSGTQFSLKINSLQPEDFGSYYCQHHYAFPWTFGGGSKLEIKR", "notes": "ATCC PTA-11885"}, "B2": {"name": "24F12.B1 antibody (antibody, mouse IgG1, V domains shown)", "VH": "SGGGLVRPGGSLKLSCAASGFTFSSYAMSWVRQSPEKRLEWVAEIGSGGSYTYYPDTVTGRFTISRDNAKSTLYLEMSSLRSEDTAIYYCARETTAGYFDYWGQGTTLTVSS", "VL": "TSSLSASLGDRVTISCSASQGINNFLNWYQQKPDGTVKLLIYYTSSLHSGVPSRFSGSGSGTDYSLTISNLEPEDIAIYYCQHFSKLPWTFGGGTKLEIKR", "notes": "ATCC PTA-11886"}, "B3": {"name": "9F3.H9.H3.H3.B5.G2 antibody (antibody, mouse IgG2a, V domains shown)", "VH": "ESGPGLVRPSQSLSLTCSVTGYSITSGYYWNWIRQFPGSRLEWMGYIKSDGSNNYNPSLKNRISITRDTSKNQFFLKLNSVTTEDTATYFCTREWKAMDYWGQGTSVTVSS", "VL": "PAIMSASPGEKVTMTCRASSTVSYSYLHWYQQKSGASPQLWIYGTSNLASGVPARFSGSGSGTSYSLTISSVEAEDAATYYCQQYSGYPLTFGAGTKLELKR", "notes": "ATCC PTA-11887"}, "B4": {"name": "MORAb-003 antibody (antibody, human IgG1, kappa, V domains shown)", "VH": "EVQLVESGGGVVQPGRSLRLSCSASGFTFSGYGLSWVRQAPGKGLEWVAMISSGGSYTYYADSVKGRFAISRDNAKNTLFLQMDSLRPEDTGVYFCARHGDDPAWFAYWGQGTPVTVSS", "VL": "DIQLTQSPSSLSASVGDRVTITCSVSSSISSNNLHWYQQKPGKAPKPWIYGTSNLASGVPSRFSGSGSGTDYTFTISSLQPEDIATYYCQQWSSYPYMYTFGQGTKVEIKR", "notes": "Used labeled with ruthenium chelate (ECLIA) or biotin (EIA) as detector, or unlabeled as capture antibody"}, "B5": {"name": "19D4.B7 antibody (antibody, mouse IgG2a, V domains shown)", "VH": "GAELVKPGASVKLSCTASGFNIKHPYMHWVKQRPDQGLEWIGRIDPANGNTKYDPKFQGKATITADTSSNTAYLQLSSLTSEDTAVYYCGREEVADYTMDYWGQGTSVTVSS", "VL": "PASLAVSLGQRATISCRASESVDTYGNNFIHWYQQKPGQPPKLLIYLASNLESGVPARFSGSGSRTDFTLTIDPVEADDAATYYCQQNNGDPWTFGGGTKLEIKR", "notes": "ATCC PTA-11884"}},
  "key": {"[1]": {"molecular_target": "T1, folate receptor alpha (FRα), human (human, UniProt P15328 25-234)", "T1 construct": "also called FR-alpha; FOLR-1", "T1 sequence (P15328 25-234 limits assumed)": "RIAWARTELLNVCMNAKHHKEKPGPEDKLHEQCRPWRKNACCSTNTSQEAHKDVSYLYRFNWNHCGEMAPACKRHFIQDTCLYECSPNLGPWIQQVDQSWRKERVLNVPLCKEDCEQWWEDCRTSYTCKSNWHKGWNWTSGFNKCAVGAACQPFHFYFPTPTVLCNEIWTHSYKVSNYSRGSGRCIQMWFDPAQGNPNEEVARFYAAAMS", "test": "sandwich ECLIA on serum, 26B3 as capture (Pair 2)", "procedure": "(§1) FRα levels in the serum of patients with ovarian cancer, patients with lung cancer, and normal controls were assessed. Serum FRα levels were assessed using ECLIA with two different pairs of capture-detector antibodies: Pair 1, in which 9F3 was the capture antibody and 24F12 was the detector antibody, and Pair 2, in which 26B3 was the capture antibody and 19D4 was the detector antibody.\n(§2) The FRα pairs were tested with full calibrator curves and 196 individual serums diluted 1:4. In one experiment, 26B3 was used as the capture antibody after CR processing on a plate lot (75 μg/mL, +B, +T) and 19D4 was used as the detector antibody at 1.0 μg/mL. In another experiment, 9F3 was used as the capture antibody and 24F12 was used as the detector antibody at 1.0 μg/mL. Each were CR processed (lot 10070) with an label to protein ratio (L/P) of 13.3. Diluent 100 (Meso Scale Discovery, Gaithersburg, Md.)+human anti-mouse antibody (HAMA)+mIgG was used for samples and calibrator. Diluent 3 (Meso Scale Discovery, Gaithersburg, Md.) was used for detections.\n(§3) The following protocol was employed for the ECLIA. Samples were added at 50 μL/well. The samples were shaken for 2 hours and subsequently washed with Phosphate Buffered Saline (PBS) solution with the detergent Tween 20 (PBST). […] Finally, the electrochemiluminescence (ECL) emission of the samples was read with 2×MSD® Buffer T."}, "[2]": {"molecular_target": "T1, folate receptor alpha (FRα), human", "test": "sandwich ECLIA on serum, 24F12 as detector (Pair 1)", "procedure": "as §1, §2, §3"}, "[3]": {"molecular_target": "T1, folate receptor alpha (FRα), human", "test": "sandwich ECLIA on serum, 9F3 as capture (Pair 1)", "procedure": "as §1, §2, §3"}, "[4]": {"molecular_target": "T1, folate receptor alpha (FRα), human", "test": "sandwich EIA, biotin-labeled detector MORAb-003, capture MOV18, row '1-S' (label not explained)"}, "[5]": {"molecular_target": "T1, folate receptor alpha (FRα), human", "test": "sandwich ECLIA on serum, 19D4 as detector (Pair 2)", "procedure": "as §1, §2, §3"}},
  "data": [
    {"binder": "B1", "values": [
      {"measurement": "binding result", "setting": "[1]", "value": "binds"}
    ]},
    {"binder": "B2", "values": [
      {"measurement": "binding result", "setting": "[2]", "value": "binds"}
    ]},
    {"binder": "B3", "values": [
      {"measurement": "binding result", "setting": "[3]", "value": "binds"}
    ]},
    {"binder": "B4", "values": [
      {"measurement": "binding result", "setting": "[4]", "value": "binds"}
    ]},
    {"binder": "B5", "values": [
      {"measurement": "binding result", "setting": "[5]", "value": "binds"}
    ]}
  ]
}
